For one assay, the system named is S6. The assay is described as follows: Living-cell staining of cell-surface S6. It counts as cell-based, mouse. The note with it: accessory protein co-transfected in 293T cells. As to the method: 293T cells were maintained in minimal essential medium containing 10% fetal bovine serum (M10). Lipofectamine 2000 (Invitrogen) was used for transfection. In live-cell staining, 16 hours after transfection, cells were incubated in M10 containing anti rhodopsin antibody, 4D2 (see, e.g., Laird, D. W., and Molday, R. S. (1988) Invest Opthalmol V is Sci 29, 419-428; herein incorporated by reference in its entirety) and 15 mM NaN3 at 4 degrees C. for 1 hour. After washing, cells were incubated with Cy3-conjugated anti mouse IgG (Jackson Immunologicals), washed and mounted. For FACS analysis, 4D2 and PE-conjugated anti mouse IgG (Jackson Immunologicals) were used to monitor the Rho tagged receptor expression. Anti HA rabbit antibodies (Sigma) and Alexa 488 conjugated anti rabbit IgG (Molecular Probes) was used to stain the HA-β2 adrenergic receptor. To establish the Hana3a cells, 1 ug/ml of puromycin was used for selection. 96 colonies were picked and assayed using luciferase assay using OREG.

For assay [1], the target named is T1, mouse odorant receptor OREG (Mus musculus, UniProt Q920P2).
T1 construct: expressed in transfected cells; host or cells: 293T cells (with or without co-transfected REEP1/RTP1/RTP2) and Hana3A cells (293T stably expressing mouse REEP1, RTP1, RTP2, Galpha-olf)
T1 sequence (Q920P2 1-313): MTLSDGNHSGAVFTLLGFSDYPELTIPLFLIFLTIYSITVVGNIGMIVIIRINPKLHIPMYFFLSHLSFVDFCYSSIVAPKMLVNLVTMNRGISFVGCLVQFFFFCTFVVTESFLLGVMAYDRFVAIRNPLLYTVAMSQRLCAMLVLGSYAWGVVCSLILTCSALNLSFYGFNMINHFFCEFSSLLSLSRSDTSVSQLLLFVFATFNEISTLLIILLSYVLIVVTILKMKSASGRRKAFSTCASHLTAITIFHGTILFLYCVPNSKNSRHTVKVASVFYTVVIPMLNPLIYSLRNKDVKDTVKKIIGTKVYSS
Nature of the assay: CRE-luciferase reporter gene assay, OREG. It counts as cell-based. The note with it: 293T cells; compared to OR alone or control pCI. The gist of the method: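 293T-derived cells stably expressing REEP1, RTP1, RTP2 and Gαolf, transfected with OREG, CRE-luciferase and SV40-Renilla control. Odorant applied in CD293 medium for 10 h or 4 h at 37 degrees C. Output is firefly luminescence minus no-odorant value, normalized to Renilla.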

A further assay deals with OREG. Nature of the assay: Living-cell staining of cell-surface OREG. It counts as cell-based, mouse. The note with it: accessory protein co-transfected in 293T cells. The method, then:
The proteins encoded by these clones were named REEP1, for Receptor Expression Enhancing Protein 1 and RTP1, for Receptor Transporting Protein 1. Subsequently, RTP2 was found, a close relative of RTP1. […] Next, REEP1, RTP1, and RTP2 were tested to detect a similar effect in promoting cell-surface expression of other ORs. Four different ORs (mouse OREG, mouse olfr62, mouse OR-S46 and rat I7) were expressed in 293T cells with or without REEP1, RTP1, or RTP2. […] Additionally, ORs transfected with REEP and/or RTP generated more immunofluorescent cells and stronger signals in positive cells compared with ORs without REEP and/or RTP (see FIG. 2A). The signal intensity and the number of immunopositive cells varied when using different ORs at each condition. […] Nonetheless, occasional immunopositive cells were observed only when the accessory proteins were co-expressed. The effects of RTP1 or RTP2 were consistently more robust than that of REEP1. […]

B1: RTP1-A1: RTP1 variant from deleting portions of RTP1-A; murine SEQ ID NO: 46, human SEQ ID NO: 47 (protein, listed as Mus musculus)
chain: MCKSVTTGEWKKVFYEKMEEVKPADSWDFIIDPNLKHNVLAPGWKQYLELHASGRFHCSWCWHTWQSPHVVILFHMYLDKAQRAGSVRMRVFKQLCYECGTARLDESSMLEENIESLVDNLITSLREQCYGERGGHYRIHVASRQDNRRHRGEFCEACQEGIVHWKPSEKLLEEEATTYTFSRAPSPTKPQAETGSGCNFCSIPWCLFWATVLMLIIYLQFSFRTSV
For the molecule B1, the “cell-surface expression of S6” value in the assay on S6 is “Increased cell-surface staining”. In assay [1], the “OREG activity by luciferase, accessory protein co-expressed” value is reported as “Increased enhancement”. The “cell-surface expression of OREG” value in the assay on OREG is on record as “Increased cell-surface staining”.

Source of the values: US7838288B2, “Modulators of odorant receptors” (Duke University, priority 2004, dated 2010).
